Experimental data published in a protein production outcome set (Wang et al. 2014).

Experiment: label from the status in PepcDB records
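Also: failed if final PepcDB status was selected cloned or expressed and not failed if soluble or beyond.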

Row | Sequence | protein production
1 | MTYKELATFLKVLSDSSRLEILDLLSCGELCACDLLAHFQFSQPTLSYHMKALVKTNLVTTRKIGNKHLYQLNHNIFESVINNLSKVHTSNQRCICHNLKTGEC | failed
2 | MNEQPAACRIKVEALGAGFAPAAEQWAERLGLALQVDEAEFALQVGEQGLQLQQLGPDAPGPVRVDFVEGGAAHRRLYGGGSGQMIAKAVGVAQGVRPRVLDATAGLGKDGFVLATLGCEMSLIERQPLIGALLEDGLARAAQDAEVGPIVARMHLLKGNSIELMRNWQGEPPQVIYLDPMFPHREKSALVKKEMRLFRPLVGDDNDAPALLAAALALASHRVVVKRPRKAPCIEGPKPSHGLEGKSSRYDIYPKKALKALEHHHHHH | failed
3 | MLRGLRIIAENKIGVLRDLTTIIAEEGGNITFAQTFLIKHGEHEGKALIYFEIEGGDFEKILERVKTFDYIIEIEEEESFERVFGKRVIILGGGALVSQVAIGAISEADRHNLRGERISVDTMPVVGEEEIAEAVKAVSRLHRAEVLVLAGGIMGGKITEEVKKLRKSGIRVISLSMFGSVPDVADVVISDPVMAGTLAVMHISEKAKFDLDRVKGRRI | not failed
4 | MSVRDLIPWSRGGGPAPSIYRGDDMDPFLSLHRNVNRLFDEVFRGFDTPSVLGRMAPLNGTWPGVEFSETDEEIRLTAEIPGLDENDVEVMLDDGVLTLRGEKKAETEDKDRQFSERYYGRFERRFGLGREVEDDKVAATFKNGVLTVTLPKTKRAQANAKRIAINGNK | failed
5 | MAKRIFLFILTNILVLTTIGIVLSVLSSVTGVGTYFTADGGIDPMALLVFSLVVGFVGSFTSLAISRWMAKTMMGVRVLNPKKHSLSYEEQQLVDRVHRLSRSAGLTKMPEVGIYRSPEVNAFATGPSKRRSLVAVSSGLLEQMDDAAVEGVLAHEVAHITNGDMVTMTLLQGIVNTFVVFLSRIAAWIASRFVKEDLAPIVHFIAMIIFQIVFSILGSLVVFAYSRHREFHADRGGADLAGKDKMIHALRTLKSYSSRILEDDQTAVQTLKINGKKRSSLFSTHPDLDERIRRLEAK | failed
6 | MRPSAPNIWIWKVSNLASDPRETVSGEWYAARSNLSSAARLRHGGTLLLVLDAKDNHVITKAEIKAVEISHRVGTIPREIHFPDGSLFETSDNEGVDRLLGLYLPKRAGFVHRLEQFRPRLIGITAAAVLLAYGTYKLALPAVVELAVAMTPPIVPKIMSASTMQALDQTVFSASELPLEEQNAIRVQFSRIAAHAEGSPEDYKLNFRKGGYIGPNAFALPDGTLVLTDELVELAGGDRQMIIGVLAHEIGHVEYEHSLRQLYRAAGVAGLVMLIAGDVGSAMEDILTQGGGLLALSHSRDAERQADQRSVELMRKADLDPTAIERFFALLEEKLGDKGGTSIISTHPGTPQRRKAIIDYNASLDNKPAGNLEHHHHHH | failed
7 | MTVPHPESVGEPGIAVRAPARRRSAWHGQAPVVAVVALGGGIGGTARYAAALLWPTQSGGFPWTTFWVNVVGCAVIGVFMVVITDVWPAHRLVRPFFGTGVLGGFTTFSTYAVDIQKLVDAGHPRTALAYLAATLLAALAAVRLAATAARRVLVRRRR | failed
8 | MDPSEYPFDIKAYKRQSEIEEMYIINRFRERRNKIGEDYPPHLSNSDNYFTQRYDAAKKEGISPLPKYTTTMRMFAYGVAADAVDEYSKIGGTTTLECLRRFCKGIIKLYETEYLRAPTQDDLQRILRVSEMRGFPGIIGSINCMQWEWKTCPTVWEGNTTRVNFFVSQHPYNIAYYLADGIYPSYPTFVKSIRLPQSEPDKLFVQRQEACHKDIERAFGVLQARFKIIRKPAGLWDIFELAIIMRSCKWVEYTTTILDPSATPICKSCA | failed
9 | MPRYQATLLIELKKGILDPQGRAVEGVLKDLGHPVEEVRVGKVLEIVFPAENLLEAEEKAKAMGALLANPVMEVYALEALKELP | not failed
10 | MDRNEIGLNAGKVWQLLSNNEKWGYGTLKRKSGLKDKELGAALGWLSRENKIEFDQCDEELYVYLCVNVYIG | failed
11 | MGSLYTSELSRAVSESVAAALQRSFQGELRSASALGSGWSTSAELLNRNDSTERYFVKLSEPQAVSMFSAEFEGIQAMAESETVRVPAPICYGNTAERSFIVLEYLELGGIGNEAVYRDFGEKLAAMHRCSSGGRGYGWHRGNTIGSTPQLNTWMHSWADFFVENRLRYQLKLARSRQGGRLRNEDALLQRVHSVLQEHEIQHQVTPSLVHGDLWTGNVATLRNQNEVVIFDPATYYGDREVDLAMTELFGRLPRAFYQAYDASWPLPKGYREKRRVIYNLYHILNHGALFGGGYYDQAQSMIETILR | not failed
12 | AQIPQQIKGVICINAGGGIYLKEAFEQFRVAGQRFLQVRPRWLSQVPLIDLLFTRASVSRPLDRQWARQRVIDFVVADPEAALGALLDSTTEDEVNRLPKLVSQLKQPVYFLAGTDDKVMEPKYVRHLASFHPLFQYCGDNVIEIPDCGHLAMLEQPDAVASHIKSLV | failed
13 | MPVSQQCIKACGFMHPRRLQWLTFSTSPAHPVRLFLAHLYSFASRFVMTTPNPDPLHGVTLEQILRALIEHYEWSGLAERIDIRCFKSDPSIKSSLTFLRKTPWAREKVEALYVKLHRGKGW | failed
14 | MSQKKTSSRSSSVDDPATQYAKEVHSGERVAGPDIRNACARHLRDLEEGPKRGLTWDLDAANKAIRFYRTVLKLNGGEFEGLPFELLPWQKFIVGSIFGWKSSDGYRRFRVVYVESGKGSGKSPLAAGVGLTGLIADNEARAEIYAAATKKDQAMILFRDAVAMVQQSPELTKRLVCSGTGQNIWNLAYLKSGSFFRPISSDDGQSGPRPHMALIDEVHEHKTNMVVEMMRAGTKSRKQALIFMITNSGSNKRGPCWEYHEYGSRVASGALTDDGFFAYICSLDEGDDPIQDESCWFKSNPSLQDADLPGMKYLREQVTEARGMPSKEAMVRRLNFCEWTGAESPWISWDVWSQAEERVPMSLLRNRPSVGGLDLSSTTDLTSFVLLFYPTYEDPHWRLLPYFWIPDHELDKREARDKVPYAAWIKSRDLETTPGRAISKLHVLRRLQTICDFFQVDKIAFDRWRIEDMRQLMSEYDITLPELVEFGQGFKDMGPAVDEFERRLLGMIEQQPEEEGGAAEFFDDALPAEAVESLRHDGNPVMTWCAGNAVIVSDPANNRKADKAKATGRIDGIIAAIMATGISGAVSSGSSGSSIYDEGVGV | failed
15 | MSKIDWDSPEGAERYDRNCDHQFQKGHVLIEMMGIKKGDFVLDVGCGTGRQALNVAGIIGPAGKLTGIDPSSYRIELARKKFEGDSSGNVRFLVRQAENLQDIPDNSINHAYFCSSFHWVDDKKTALNEIFRVLRPGGKVGMTTLDRNSPNTMKALIDPILAKFGIERRHEWHRGMKKVTAPELHDLLSGAGFTSISIEPRAVPRKYNSPEEFLQHPEEKDSSRGILRDISNETLEKLRQEITEEFRKAQTPEDIGFGNITLFAIATKAQEGI | failed
16 | MWDLNIKESTMTRNGKAKRPLPLAASVAMYAIAIILAAATAIGNVYANKYSDLISVYFNQPTSKVVSASNETTEHFTSDYASDDEREQALADMGTTILREGVTLLKNENGTLPLEATSKISVFGQDSVDSVYGGGGAGSIDTSKAQSLMDAFEQAGFDVNPTLTEFYTTGAGKDYRKTSTDAYGKGTFAVNEVPASAYTDDVKKSFASYNDAAIVVIGRSGSESQDLPTDKLASGYTYLQLDDDERAMLKMASDNFDKVVVLLNTQNPMELADLEDDSIDAVMWIGSLGQTGAGGVAEALNGTVNPSGHLPDTYAYDLKSAPSSANFGSYAIVNGTDRFTSSYMAYAEGIYVGYRYYETRYEDVVLGNEARSNYDYTKQVAYPFGYGLSYTDFTWSDYSMKKADGGFDISVKVTNTGKTAGKDVVQLYMQSPYTDYDKANGIEKASVELVGYAKTDTLKAGASETVTVHVDQESMKTYDSTGEGTYIMDAGDYYLAVGTDAHNALNNILAAKGKTTADGMTENGNAALAAKHTVHSQDNTTYAKSAATDEKISNQFDDVDLTTYDNSFTYLSRSDWTGSWPATYADGKWTASQKFLDALNIDTAQSEPEQKPTTDTDNPSYGKLNASMLMDADYADESWSALIGQMSVKELDQLVRIGGYATKSVSSTQLPATTDKDGPAGISSTLVGGESGMGYPSEIVIAATWNSDLAESFGKAIGEDSLALKVAVWYGPACNIHRNPYGGRAFEYFSEDSYLSGAMCAKVVAGAGSKGVVSTVKHFALNDQETNRMGGAIFANEQTIRQLYLRPFEMSVRDGGATAMMASMNRIGSRWTGGHKGLMTNTLRGEWGFNGFVVTDQASYSVFAYEDLREGLEAGTDLWLNTDAGLWKLPDDDMTDGVIANMQRAAHNISYAISRSNAMNGLSANSKIVKVTPLWRWGVYALDGVVTVGAVALIAIATLQILRRRKRDATVAAETGEPAANDGE | failed
17 | MLKRLWQIFGPVICALVLVVVVIYAYPQGRKYSYEAEKRSAVTLTNENFKSRKNKTTALSDQNHRFVPYFGSSEWLRFDALHPAVLAEKYDRNYRPYFIGQRGSASLNQYLGMQQMLPELQNGTAVYVLSPQWFTKKGYNSAAFQQFFNNDQLSSFLSQNQTDANSQYAAKRILEMKPEITMKSQLSKVAKGQDLNTVDKTYIQFMAELNRREDSLFSPLAASNNANYDKKVLPYLKELPDQFSYDALDQLAVRDAEAHTKSNDFGIDDRFYKERLSKKIGKLKGFQKNLSYEVSQEYGDLQLVLNQFAKSNTNVIFVIPPVNSKWMAYTGLNQDMYDATVSKIRYQLESQGFTNIADFSKDGDQPYFMQDTIHMGWKGWVAFDRVVNSFVSNPTPAPSYKLNDRFYSKDWSGYTGTPSQFKLEHHHHHH | not failed
18 | MNTRLNEPDLPGDIDIKDLDPLVLQDLKVLSKDNADAVAKHMIMAATWLADDPQLALRHARAAKDRAGRVSVVRETNGIAAYHAGEWKEALSELRAARRMSGGPGLIAVMADCERGLGRPEKAIELAREEDLSSLDQDNLIELAIVVAGARHDLGQHDSAIVELQKVNPSLKSTGFTHSRLSYAYADALVLAGRGDEAREWFQHAATLDEDGYLDAEERIEQLDNGNN | failed
19 | MDAEEKDGVLYFEGQVLTGAKVNSVIDHTLLDFGCEAEETIVSCGEDTSNPHGTTEGPLRANAPIILDIFPRSKKKRYFADMTRTVLRGEASEKLKEMYETVLVAQQKALEMVKPGIHSSEIHRAVCDLFEARGYHTYRSGSKAGFTHSTGHGVGLDIHELPSVGESGVLLETGNVITIEPGLYYPGIGGIRLEDMVLVTKTGYENFTGLEKKFVLKSFYNLEHHHHHH | not failed
20 | MRTLEPPNRMRIGLMGIVVALLVVAVGQSFTSVPMLFAKPSYYGQFTDSGGLHKGDRVRIAGLGVGTVEGLKIDGDHIVVKFSIGTNTIGTESRLAIRTDTILGRKVLEIEPRGAQALPPGGVLPVGQSTTPYQIYDAFFDVTKAASGWDIETVKRSLNVLSETVDQTYPHLSAALDGVAKFSDTIGKRDEQITHLLAQANQVASILGDRSDQVDRLLVNAKTLIAAFNERGRAVDALLGNISAFSAQVQNLINDNPNLNHVLEQLRILTDLLVDRKEDLAETLTILGRFSASFGETFASGPYFKVLLANLVPGQILQPFVDAAFKKRGISPEDFWRSAGLPAYRWPDPNGTRFPNGAPPPPPPVLEGTPEHPGPAVPPGSPCSYTPPADGLPRPWDPLPCANLTQGPFGGPDFPAPLDVATSPPNPDGPPPAPGLPIAGRPGEVPPNVPGTPVPIPQEAPPGARTLPLGPAPGPAPPPAAPGPPAPPGPGPQLPAPFINPGGTGGSGVTGGSEN | failed
21 | MKKLIFLTLSIVSFNNYAVDFVYRVDSTPPDVIFRDGFSLLGYNRNFQQFISGRSCSGGSSDSRYIATTSSVNQTYAIARAYYSRSTFKGNLYRYQIRADNNFYSLLPSITYLETQGGHFNAYEKTMMRLQREYVSTLSILPENIQKAVALVYDSATGLVKDGVSTMNASYLGLSTTSNPGVIPFLPEPQTYTQQRIDAFGPLISSCFSIGSVCQSHRGQRADVYNMSFYDARPVIELILSK | failed
22 | MGHETKAQLKDYVEVKIMKIKTTVAALSVLSVLSFGAFAADSIDAAQAQNREAIGTVSVSGVASSPMDIREMLNKKAEEKGATAYQITEARSGDTWHATAELYKLEHHHHHH | not failed
